Laboratory results from article PMC3467281.

Target: T1, Fas (mouse (endogenous in WEHI-231)) (UniProt P25446)
T1 sequence: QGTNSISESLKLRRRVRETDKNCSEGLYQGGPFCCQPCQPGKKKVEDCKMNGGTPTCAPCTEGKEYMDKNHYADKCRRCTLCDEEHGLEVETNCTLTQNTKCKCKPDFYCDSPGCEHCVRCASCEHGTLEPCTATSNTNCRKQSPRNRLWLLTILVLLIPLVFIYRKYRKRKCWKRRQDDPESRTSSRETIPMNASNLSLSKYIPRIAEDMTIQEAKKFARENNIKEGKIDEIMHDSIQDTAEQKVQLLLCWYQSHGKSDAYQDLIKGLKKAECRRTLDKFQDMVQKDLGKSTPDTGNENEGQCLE

Substance “FasL (from UniProt P41047 1-279) (ligand)” has a survival of p21–35-loaded WEHI-231 cells co-cultured with the cytolytic CD4+ T cell clone R3TB7, restored by increasing concentrations of an anti-FasL antibody (Annexin V / 7-AAD) (% of WEHI-231 cell survival) of 80.
